Values of other authors as cited in patent publication US20040241754A1, “Modulating neuronal plasticity” (The Salk Institute for Biological Studies, priority 2003, published 2004).

T1: EphB4 (Homo sapiens, UniProt P54760)
T1 sequence (P54760 16-987): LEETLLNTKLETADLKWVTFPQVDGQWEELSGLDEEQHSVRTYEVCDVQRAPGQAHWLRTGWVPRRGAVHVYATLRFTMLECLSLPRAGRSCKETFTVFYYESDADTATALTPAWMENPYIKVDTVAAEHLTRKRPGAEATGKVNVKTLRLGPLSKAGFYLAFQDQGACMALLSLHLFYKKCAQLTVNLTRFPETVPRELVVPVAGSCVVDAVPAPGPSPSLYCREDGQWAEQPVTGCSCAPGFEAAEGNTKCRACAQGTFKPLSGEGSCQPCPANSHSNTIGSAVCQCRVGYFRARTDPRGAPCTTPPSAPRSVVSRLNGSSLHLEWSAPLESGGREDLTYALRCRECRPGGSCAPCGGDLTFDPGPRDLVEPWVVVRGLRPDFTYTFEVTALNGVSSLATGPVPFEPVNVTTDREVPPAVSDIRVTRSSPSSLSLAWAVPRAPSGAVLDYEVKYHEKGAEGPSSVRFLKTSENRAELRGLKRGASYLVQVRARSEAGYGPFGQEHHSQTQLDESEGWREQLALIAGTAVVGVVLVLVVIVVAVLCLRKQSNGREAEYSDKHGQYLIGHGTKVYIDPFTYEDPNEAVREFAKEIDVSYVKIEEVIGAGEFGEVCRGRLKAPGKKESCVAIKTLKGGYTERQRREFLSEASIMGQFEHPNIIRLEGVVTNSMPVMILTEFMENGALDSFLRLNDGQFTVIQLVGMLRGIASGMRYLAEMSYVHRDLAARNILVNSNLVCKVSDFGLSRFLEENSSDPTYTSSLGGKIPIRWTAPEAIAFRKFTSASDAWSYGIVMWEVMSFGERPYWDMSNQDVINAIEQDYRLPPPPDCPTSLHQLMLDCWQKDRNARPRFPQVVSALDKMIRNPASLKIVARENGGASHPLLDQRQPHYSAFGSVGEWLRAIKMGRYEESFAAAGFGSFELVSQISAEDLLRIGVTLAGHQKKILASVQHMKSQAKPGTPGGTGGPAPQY

B1: ephrin-B2: a 38-42 kDa, 333 amino acid glycoprotein; ephrin ligand (protein, UniProt P52799 1-333, looked up)
chain: MAVRRDSVWKYCWGVLMVLCRTAISKSIVLEPIYWNSSNSKFLPGQGLVLYPQIGDKLDIICPKVDSKTVGQYEYYKVYMVDKDQADRCTIKKENTPLLNCAKPDQDIKFTIKFQEFSPNLWGLEFQKNKDYYIISTSNGSLEGLDNQEGGVCQTRAMKILMKVGQDASSAGSTRNKDPTRRPELEAGTNGRSSTTSPFVKPNPGSSTDGNSAGHSGNNILGSEVALFAGIASGCIIFIVIIITLVVLLLKYRRRHRKHSPQHTTTLSLSTLATPKRSGNNNGSEPSDIIIPLRTADSVFCPHYEKVSGDYGHPVYIVQEMPPQSPANIYYKV
modifications: full-length
notes: a 38-42 kDa, 333 amino acid glycoprotein; ephrin ligand
B2: ephrin-A1: a 25 kDa, 205 amino acid glycoprotein; ephrin ligand (protein, UniProt P20827 1-205, looked up)
chain: MEFLWAPLLGLCCSLAAADRHTVFWNSSNPKFRNEDYTIHVQLNDYVDIICPHYEDHSVADAAMEQYILYLVEHEEYQLCQPQSKDQVRWQCNRPSAKHGPEKLSEKFQRFTPFTLGKEFKEGHSYYYISKPIHQHEDRCLRLKVTVSGKITHSPQAHDNPQEKRLAADDPEVRVLHSIGHSAAPRLFPLAWTVLLLPLLLLQTP
modifications: full-length
notes: a 25 kDa, 205 amino acid glycoprotein; ephrin ligand

Tests used:
EphB4 = target: T1, EphB4; conditions: read-out: Kd for binding to EphB4; cited from earlier work
EphA2 = EphA2 (Homo sapiens, UniProt P29317); conditions: read-out: Kd for binding to EphA2; cited from earlier work
EphA2, sequence (P29317 24-976): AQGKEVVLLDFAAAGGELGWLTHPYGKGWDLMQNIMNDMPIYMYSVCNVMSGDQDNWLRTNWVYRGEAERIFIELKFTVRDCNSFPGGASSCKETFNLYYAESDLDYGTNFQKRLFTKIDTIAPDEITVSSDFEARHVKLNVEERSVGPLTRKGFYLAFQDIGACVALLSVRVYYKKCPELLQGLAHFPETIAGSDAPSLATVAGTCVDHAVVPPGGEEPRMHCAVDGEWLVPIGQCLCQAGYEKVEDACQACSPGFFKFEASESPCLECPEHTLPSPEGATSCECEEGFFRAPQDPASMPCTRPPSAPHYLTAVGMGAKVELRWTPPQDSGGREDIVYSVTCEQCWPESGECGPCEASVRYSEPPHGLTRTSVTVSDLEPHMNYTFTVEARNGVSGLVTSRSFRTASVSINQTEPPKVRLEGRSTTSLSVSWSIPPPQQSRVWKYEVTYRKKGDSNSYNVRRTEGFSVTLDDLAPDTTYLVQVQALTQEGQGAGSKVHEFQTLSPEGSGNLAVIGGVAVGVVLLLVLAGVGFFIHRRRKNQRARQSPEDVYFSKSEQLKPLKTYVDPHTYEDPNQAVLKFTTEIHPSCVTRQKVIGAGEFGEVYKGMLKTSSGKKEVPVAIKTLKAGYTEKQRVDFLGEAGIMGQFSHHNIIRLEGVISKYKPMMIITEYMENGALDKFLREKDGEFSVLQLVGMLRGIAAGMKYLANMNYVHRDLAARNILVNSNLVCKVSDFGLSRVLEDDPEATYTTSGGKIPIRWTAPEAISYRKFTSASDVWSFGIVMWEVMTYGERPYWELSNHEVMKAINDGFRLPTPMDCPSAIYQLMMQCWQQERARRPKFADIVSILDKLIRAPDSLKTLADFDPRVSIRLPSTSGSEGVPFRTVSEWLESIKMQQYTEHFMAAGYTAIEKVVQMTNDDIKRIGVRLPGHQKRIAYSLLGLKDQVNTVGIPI

Row | Molecule | Kd (EphB4) [nM] | Kd (EphA2) [nM]
1 | B1 | 0.535 | 
2 | B2 |  | 25
